# B1: untagged Drp1-4A (natural protein, human, UniProt O00429 1-736, looked up)
# chain: MEALIPVINKLQDVFNTVGADIIQLPQIVVVGTQSSGKSSVLESLVGRDLLPRGTGIVTRRPLILQLVHVSQEDKRKTTGEENGVEAEEWGKFLHTKNKLYTDFDEIRQEIENETERISGNNKGVSPEPIHLKIFSPNVVNLTLVDLPGMTKVPVGDQPKDIELQIRELILRFISNPNSIILAVTAANTDMATSEALKISREVDPDGRRTLAVITKLDLMDAGTDAMDVLMGRVIPVKLGIIGVVNRSQLDINNKKSVTDSIRDEYAFLQKKYPSLANRNGTKYLARTLNRLLMHHIRDCLPELKTRINVLAAQYQSLLNSYGEPVDDKSATLLQLITKFATEYCNTIEGTAKYIETSELCGGARICYIFHETFGRTLESVDPLGGLNTIDILTAIRNATAAAAALFVPEVSFELLVKRQIKRLEEPSLRCVELVHEEMQRIIQHCSNYSTQELLRFPKLHDAIVEVVTCLLRKRLPVTNEMVHNLVAIELAYINTKHPDFADACGLMNNNIEEQRRNRLARELPSAVSRDKSSKVPSALAPASQEPSPAASAEADGKLIQDSRRETKNVASGGGGVGDGVQEPTTGNWRGMLKTSKAEELLAEEKSKPIPIMPASPQKGHAVNLLDVPVPVARKLSAREQRDCEVIERLIKSYFLIVRKNIQDSVPKAVMHFLVNHVKDTLQSELVGQLYKSSLLDDLLTESEDMAQRRKEAADMLKALQGASQIIAEIRETHLW
# notes: human Drp1 isoform 1 with the four residues 401GPRP404 mutated to AAAA, untagged; Made by site-directed mutagenesis on untagged Drp1-WT; Copies: ~280 kDa cross-linked product said to correspond to tetramers; also called Drp1-4A mutant
# Biological target: the molecule itself
# Experiment: cross-linking; in vivo: intact 293T cells (WT; MIEF1/2/Mff-/-; overexpressing MIEF1-V5, MIEF2-V5 or Myc-Mff; or Drp1-/- transfected with untagged Drp1 for 18 h) with 1 mM DSS in PBS with Ca2+/Mg2+, time course or 3 h, room temperature, quenched with 50 mM Tris pH 7.5; reducing SDS-PAGE and Western blot
protein,measurement,value
B1,stoichiometry N,4
